From patent US20240240141A1, “RAPID AND EFFICIENT CLINICAL GRADE PIGMENT EPITHELIUM INDUCTION METHOD, KIT, AND APPLICATION” (ALLIFE MEDICINE (ZHUHAI) LIMITED, priority 2021, published 2024)

System: iPSCs
Assay: qPCR of PAX6 expression in iPSCs cultured in RDM1 with different BMP signaling pathway inhibitors
Assay type: cell-based
Conditions: 50 ng/mL noggin in RDM1 culture medium, day 6, Day 0 as control; compared with 2 μM Dorsomorphin or 3 μM LDN-193189 (FIG. 9)
Protocol: 1. Collect 200W cells, adding 1 ml TRIZOL, extracting RNA and determining the RNA concentration. Taking 1 μg RNA and reverse-transcribing it into cDNA. Premixing according to the system as follows in Table 1.
2. Then putting the above system into the Light cycler instrument for reaction according to the 3-step method with a number of cycles of 45. The reaction system is as follows in Table 2:
iPSCs were cultured according to the method of Example 1. 50 ng/mL noggin, 2 μM Dorsomorphin or 3 μM LDN-193189 was added to the RDM1 culture medium as three sets of parallel controls. The expression level of PAX6 in the cells on day 6 was detected.
The results are shown in FIG. 9: Day 0 was used as a control. The expression level of PAX6 was detected after 6 days of cell differentiation.

B1: noggin (protein, UniProt Q13253 28-232, looked up)
Noggin: QHYLHIRPAPSDNLPLVDLIEHPDPIFDPKEKDLNETLLRSLLGGHYDPGFMATSPPEDRPGGGGGAAGGAEDLAELDQLLRQRPSGAMPSEIKGLEFSEGLAQGKKQRLSKKLRRKLQMWLWSQTFCPVLYAWNDLGSRFWPRYVKVGSCFSKRSCSVPEGMVCKPSKSVHLTVLRWRCQRRGGQRCGWIPIQYPIISECKCSC
expression level of PAX6: the best effect and the highest expression level of PAX6
